Target: Recombinant HSV-1 glycoprotein B, soluble ectodomain (HSV-1)
Experiment: Luminex binding assay

B1: BMPC-23 recombinant mouse IgG (antibody, V domains shown)
VH: QVQLQQSGPELVKPGASVKLSCKASGYSFTTYDINWVKERPGQGLEWIGWIYPREGSTNYNEKFRGKATLTADTSSSTAYMELHSLTSEDSAVYFCATYGSSRYYTMDYWGQGTSVTVSS
VL: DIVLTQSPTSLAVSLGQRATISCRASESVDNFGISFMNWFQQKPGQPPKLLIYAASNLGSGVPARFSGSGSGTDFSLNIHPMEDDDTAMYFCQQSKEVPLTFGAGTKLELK
Binder B1 has an EC50 of 3.5 ng/mL.
